Paper doi:10.1101/709196 (bioRxiv, 2019)
One block for each molecule: values may come before it.

Columns and labels:
SS-EGFP-SUN2^261-731 = SS-EGFP-SUN2^261-731 (UniProt Q8BJS4); assay: dual-color fluorescence fluctuation spectroscopy
[1] = target: the molecule itself; assay: dual-color fluorescence fluctuation spectroscopy

normalized brightness br (mCherry labels per complex) at Nr:Ng above 4:1 (SS-EGFP-SUN2^261-731): 3 | stoichiometry N (SS-EGFP-SUN2^261-731; scale: mCherry-SR-KASH2 per SS-EGFP-SUN2^261-731): < 1
Molecule: mCherry-SR-KASH2 (from UniProt Q6ZWQ0 1-6874) (domain or fragment)

B1: SS-EGFP-SUN2^261-731 (domain or fragment, UniProt Q8BJS4 261-731, looked up)
chain: SWWAAKESRKQPEVWESRDASQHFQAEQRVLSRVHSLERRLEALAADFSSNWQKEAIRLERLELRQGAAGHGGGSSLSHEDALSLLEGLVSRREATLKEDLRRDTVAHIQEELATLRAEHHQDSEDLFKKIVQASQESEARVQQLKTEWKSMTQEAFQESSVKELGRLEAQLASLRQELAALTLKQNSVADEVGLLPQKIQAARADVESQFPDWIRQFLLGDRGARSGLLQRDEMHAQLQELENKILTKMAEMQGKSAREAAASLGQILQKEGIVGVTEEQVHRIVKQALQRYSEDRIGMVDYALESGGASVISTRCSETYETKTALLSLFGIPLWYHSQSPRVILQPDVHPGNCWAFQGPQGFAVVRLSARIRPTAVTLEHVPKALSPNSTISSAPKDFAIFGFDEDLQQEGTLLGTFAYDQDGEPIQTFYFQASKMATYQVVELRILTNWGHPEYTCIYRFRVHGEPAH
stoichiometry N [1]: 3
